According to publication PMC10783487:

Legend:
[1] = target: T1, TbrCan2 E341A (Thermoanaerobacter brockii subsp. …, UniProt E8URK0 1-437, E341A); experiment: crystal structure 2.4 A
T1 sequence: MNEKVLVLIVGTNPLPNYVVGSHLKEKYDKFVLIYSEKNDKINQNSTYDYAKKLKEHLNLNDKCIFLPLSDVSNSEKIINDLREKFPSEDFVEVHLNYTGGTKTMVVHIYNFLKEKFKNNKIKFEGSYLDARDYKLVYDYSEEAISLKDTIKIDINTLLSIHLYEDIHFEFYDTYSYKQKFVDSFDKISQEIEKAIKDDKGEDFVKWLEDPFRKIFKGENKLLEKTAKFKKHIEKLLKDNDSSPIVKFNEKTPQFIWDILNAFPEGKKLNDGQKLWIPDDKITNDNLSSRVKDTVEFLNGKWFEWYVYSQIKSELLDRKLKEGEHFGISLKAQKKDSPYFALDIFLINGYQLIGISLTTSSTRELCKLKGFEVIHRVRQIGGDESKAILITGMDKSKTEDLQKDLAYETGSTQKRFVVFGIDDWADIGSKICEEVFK

[2] = target: T1, TbrCan2 E341A; experiment: crystal structure 2.0 A
[3] = target: T1, TbrCan2 E341A; experiment: crystal structure 2.3 A
[4] = target: T2, TbrCan2 E364R (Thermoanaerobacter brockii subsp. …, UniProt E8URK0 1-437, E364R); experiment: crystal structure
T2 sequence: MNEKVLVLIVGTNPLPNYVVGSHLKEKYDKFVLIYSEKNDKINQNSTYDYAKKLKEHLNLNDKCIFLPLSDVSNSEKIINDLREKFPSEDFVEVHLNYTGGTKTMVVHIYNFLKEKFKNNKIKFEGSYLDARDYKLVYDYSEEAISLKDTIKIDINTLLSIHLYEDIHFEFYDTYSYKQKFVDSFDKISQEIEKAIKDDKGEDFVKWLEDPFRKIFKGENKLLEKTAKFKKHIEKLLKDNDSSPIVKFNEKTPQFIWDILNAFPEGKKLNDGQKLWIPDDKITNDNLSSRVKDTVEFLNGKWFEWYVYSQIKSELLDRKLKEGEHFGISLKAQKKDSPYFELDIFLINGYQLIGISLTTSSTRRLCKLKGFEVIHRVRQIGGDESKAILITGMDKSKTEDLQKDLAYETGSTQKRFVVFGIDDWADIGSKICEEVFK

[5] = target: T1, TbrCan2 E341A; experiment: EMSA

Row | Binder | binding result [5] | other results
1 | TTTAAA (ssDNA) [TTTAAA (dKJ44)] | – | binding result [1]: binds
2 | AAAAAA (ssDNA) [dA6 (dKJ42)] | – | binding result [2]: binds
3 | CCCCCC (ssDNA) [dC6] | – | binding result [3]: binds
4 | TTTTTT (ssDNA) [dT6 (dKJ46)] | – | binding result [4]: binds
5 | AAAAAAAAAAAAAAA (ssRNA) [rA15] | binds | –
6 | UUUUUUUUUUUUUUU (ssRNA) [rU15] | no binding | –
7 | TTTTTTTTTTTTTTT (ssDNA) [dT15 (dKJ62)] | no binding | –
8 | UUUUUUUGGGUUUUUUUUUUUUUUUUUUUU (ssRNA) [U7-G3-U20 RNA (rKJ10)] | no binding | –
9 | TTTTTTTGGGTTTTTTTTTTTTTTTTTTTT (ssDNA) [T7-G3-T20 DNA (dKJ72)] | no binding | –
